Reference: US20240294636A1 (YALE UNIVERSITY, published 2024)

Biological target: T1, mouse Unc5B (mouse, UniProt Q8K1S3 27-945)
T1 construct: whole, on cells; Endogenous protein; also called Uncoordinated 5B
Experiment: immunoprecipitation from mouse brain endothelial Bend.3 cells with the named antibody, western blot of the precipitate for Unc5B and Claudin5

T1 sequence (Q8K1S3 27-945): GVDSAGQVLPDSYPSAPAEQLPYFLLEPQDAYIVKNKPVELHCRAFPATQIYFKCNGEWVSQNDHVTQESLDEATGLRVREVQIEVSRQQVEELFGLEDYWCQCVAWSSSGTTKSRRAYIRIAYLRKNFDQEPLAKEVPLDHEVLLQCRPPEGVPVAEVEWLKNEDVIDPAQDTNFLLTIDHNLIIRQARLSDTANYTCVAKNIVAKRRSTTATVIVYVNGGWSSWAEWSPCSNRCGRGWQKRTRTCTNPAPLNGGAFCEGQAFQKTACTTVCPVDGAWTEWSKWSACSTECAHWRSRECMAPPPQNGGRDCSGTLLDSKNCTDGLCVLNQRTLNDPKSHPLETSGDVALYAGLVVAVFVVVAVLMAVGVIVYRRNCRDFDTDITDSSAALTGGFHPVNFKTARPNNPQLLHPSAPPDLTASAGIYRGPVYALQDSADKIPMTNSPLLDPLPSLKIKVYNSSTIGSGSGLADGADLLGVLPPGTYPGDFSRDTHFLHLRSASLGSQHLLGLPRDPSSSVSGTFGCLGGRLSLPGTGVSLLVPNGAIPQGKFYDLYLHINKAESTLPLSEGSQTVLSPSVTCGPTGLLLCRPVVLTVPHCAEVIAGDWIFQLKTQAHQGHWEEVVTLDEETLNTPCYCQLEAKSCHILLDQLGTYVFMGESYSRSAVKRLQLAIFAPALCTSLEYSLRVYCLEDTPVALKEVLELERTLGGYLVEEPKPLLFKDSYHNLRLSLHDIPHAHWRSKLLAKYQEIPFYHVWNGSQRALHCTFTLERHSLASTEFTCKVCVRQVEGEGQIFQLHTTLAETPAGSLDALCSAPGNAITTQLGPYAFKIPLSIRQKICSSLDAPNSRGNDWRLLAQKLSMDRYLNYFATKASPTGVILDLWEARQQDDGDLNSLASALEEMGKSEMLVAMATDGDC

binding result: binds
B1: anti-Unc5B antibody 1103 (antibody, V domains shown)
VH: EVQLVESGGGLVQPGGSLRLSCAASGFNISYYSIHWVRQAPGKGLEWVASIYSSSGYTSYADSVKGRFTISADTSKNTAYLQMNSLRAEDTAVYYCARGYGLDYWGQGTLVTVSS
VL: DIQMTQSPSSLSASVGDRVTITCRASQSVSSAVAWYQQKPGKAPKLLIYSASSLYSGVPSRFSGSRSGTDFTLTISSLQPEDFATYYCQQHYSYPITFGQGTKVEIKR
notes: also called anti-Unc5B-3
